In the supplement of paper PMC9112550, “Optimization of the antimicrobial peptide Bac7 by deep mutational scanning” (BMC Biology, 2022):

Each sequence was assayed on Escherichia coli TOP10 (assay: shrunken log2 fold change of peptide-encoding DNA abundance (4.5 h post-induction vs induction); higher = less antimicrobial activity (less host growth inhibition)). Conditions: time post-induction: 4.5 h; library: site-saturation at positions 5, 18, 19, 20.
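Note: peptides expressed intracellularly from a pBAD plasmid library in pooled LB shake-flask culture, induced with 0.3% L-arabinose, DNA abundance read by NGS, three biological replicates, DESeq2 with apeglm shrinkage.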

For RRIRGRPPRLPRPRPRPGDVPRP, which “shrunken log2 fold change” value is on record?
Its value is 0.347.

With RRIRWRPPRLPRPRPRPVPCPRP as the sequence, how does the “shrunken log2 fold change” value read?
Its value is -0.00353.

Which “shrunken log2 fold change” value does the source give for RRIRYRPPRLPRPRPRPCVLPRP here?
Its value is -0.00875.

With RRIRSRPPRLPRPRPRPQVWPRP as the sequence, how does the “shrunken log2 fold change” value read?
Its value is 0.675.

For RRIRARPPRLPRPRPRPPEEPRP, which “shrunken log2 fold change” value is on record?
The value was 1.73.

Which “shrunken log2 fold change” value does the source give for RRIRHRPPRLPRPRPRPVYGPRP here?
Its value is -0.528.

For RRIRQRPPRLPRPRPRPHAAPRP, which “shrunken log2 fold change” value is on record?
The value was 0.465.

How did the “shrunken log2 fold change” value turn out when RRIRCRPPRLPRPRPRPQFFPRP was run?
The value was -0.433.

RRIRDRPPRLPRPRPRPLPGPRP was tested. Which “shrunken log2 fold change” value did it give?
Its value is 0.312.

Which “shrunken log2 fold change” value does the source give for RRIRNRPPRLPRPRPRPQPHPRP here?
The value was -0.0382.

Which “shrunken log2 fold change” value does the source give for RRIRLRPPRLPRPRPRPNVTPRP here?
Its value is -0.286.

Which “shrunken log2 fold change” value does the source give for RRIRGRPPRLPRPRPRPVFVPRP here?
Its value is 0.324.

With RRIRGRPPRLPRPRPRPWFHPRP as the sequence, how does the “shrunken log2 fold change” value read?
Its value is -0.121.

How did the “shrunken log2 fold change” value turn out when RRIRTRPPRLPRPRPRPGQYPRP was run?
Its value is -0.286.

With RRIRWRPPRLPRPRPRPEIDPRP as the sequence, how does the “shrunken log2 fold change” value read?
The value was 0.0771.

How did the “shrunken log2 fold change” value turn out when RRIRKRPPRLPRPRPRPDVHPRP was run?
Its value is -0.00151.

How did the “shrunken log2 fold change” value turn out when RRIRIRPPRLPRPRPRPYAHPRP was run?
The value was -0.184.

With RRIRFRPPRLPRPRPRPHITPRP as the sequence, how does the “shrunken log2 fold change” value read?
The value was -0.734.

Which “shrunken log2 fold change” value does the source give for RRIRARPPRLPRPRPRPMNMPRP here?
The value was -0.0785.

With RRIRARPPRLPRPRPRPPHAPRP as the sequence, how does the “shrunken log2 fold change” value read?
The value was 0.964.

Which “shrunken log2 fold change” value does the source give for RRIRYRPPRLPRPRPRPHEEPRP here?
The value was -0.018.

With RRIRPRPPRLPRPRPRPMFNPRP as the sequence, how does the “shrunken log2 fold change” value read?
Its value is -0.648.

For RRIRNRPPRLPRPRPRPYDSPRP, which “shrunken log2 fold change” value is on record?
Its value is -0.284.

Which “shrunken log2 fold change” value does the source give for RRIRKRPPRLPRPRPRPPRRPRP here?
The value was 1.04.

How did the “shrunken log2 fold change” value turn out when RRIRMRPPRLPRPRPRPEHDPRP was run?
Its value is 1.62.

For RRIRSRPPRLPRPRPRPRPPPRP, which “shrunken log2 fold change” value is on record?
The value was 1.13.

For RRIRDRPPRLPRPRPRPRKQPRP, which “shrunken log2 fold change” value is on record?
Its value is -0.0319.

RRIRCRPPRLPRPRPRPIRPPRP was tested. Which “shrunken log2 fold change” value did it give?
The value was -0.0704.

With RRIRCRPPRLPRPRPRPINKPRP as the sequence, how does the “shrunken log2 fold change” value read?
The value was -1.19.

For RRIRSRPPRLPRPRPRPKSMPRP, which “shrunken log2 fold change” value is on record?
The value was -0.269.

Which “shrunken log2 fold change” value does the source give for RRIRQRPPRLPRPRPRPTAQPRP here?
The value was 0.0588.

How did the “shrunken log2 fold change” value turn out when RRIRDRPPRLPRPRPRPRIYPRP was run?
The value was -0.173.

With RRIRMRPPRLPRPRPRPVGIPRP as the sequence, how does the “shrunken log2 fold change” value read?
The value was 0.158.

With RRIRLRPPRLPRPRPRPINKPRP as the sequence, how does the “shrunken log2 fold change” value read?
The value was -0.617.

With RRIRPRPPRLPRPRPRPYCRPRP as the sequence, how does the “shrunken log2 fold change” value read?
The value was 0.0122.

RRIRPRPPRLPRPRPRPTFRPRP was tested. Which “shrunken log2 fold change” value did it give?
The value was 0.0885.

RRIRCRPPRLPRPRPRPDNYPRP was tested. Which “shrunken log2 fold change” value did it give?
Its value is -0.921.

With RRIRCRPPRLPRPRPRPSHCPRP as the sequence, how does the “shrunken log2 fold change” value read?
Its value is -0.393.

Which “shrunken log2 fold change” value does the source give for RRIRNRPPRLPRPRPRPPNNPRP here?
The value was -0.598.

For RRIRQRPPRLPRPRPRPTMSPRP, which “shrunken log2 fold change” value is on record?
Its value is 0.0272.

RRIRYRPPRLPRPRPRPIGMPRP was tested. Which “shrunken log2 fold change” value did it give?
The value was -0.265.

How did the “shrunken log2 fold change” value turn out when RRIRWRPPRLPRPRPRPRYKPRP was run?
The value was -0.104.

How did the “shrunken log2 fold change” value turn out when RRIRNRPPRLPRPRPRPQVYPRP was run?
Its value is -0.0412.

How did the “shrunken log2 fold change” value turn out when RRIRDRPPRLPRPRPRPHVRPRP was run?
The value was -0.12.

Which “shrunken log2 fold change” value does the source give for RRIRCRPPRLPRPRPRPKEGPRP here?
The value was 0.201.

With RRIRHRPPRLPRPRPRPKVTPRP as the sequence, how does the “shrunken log2 fold change” value read?
The value was -0.62.

Which “shrunken log2 fold change” value does the source give for RRIRVRPPRLPRPRPRPPYAPRP here?
The value was -0.00506.

RRIRDRPPRLPRPRPRPWVNPRP was tested. Which “shrunken log2 fold change” value did it give?
Its value is 0.0215.

With RRIRNRPPRLPRPRPRPDFPPRP as the sequence, how does the “shrunken log2 fold change” value read?
The value was -0.0345.

How did the “shrunken log2 fold change” value turn out when RRIRSRPPRLPRPRPRPCLMPRP was run?
The value was -0.135.

RRIRWRPPRLPRPRPRPYKGPRP was tested. Which “shrunken log2 fold change” value did it give?
The value was -0.0487.

For RRIRWRPPRLPRPRPRPWVRPRP, which “shrunken log2 fold change” value is on record?
Its value is -0.172.

Which “shrunken log2 fold change” value does the source give for RRIRHRPPRLPRPRPRPDAFPRP here?
Its value is -0.0702.

RRIRTRPPRLPRPRPRPDSGPRP was tested. Which “shrunken log2 fold change” value did it give?
The value was -0.0764.

How did the “shrunken log2 fold change” value turn out when RRIRLRPPRLPRPRPRPRFTPRP was run?
Its value is 0.0165.

RRIRERPPRLPRPRPRPHQPPRP was tested. Which “shrunken log2 fold change” value did it give?
Its value is 0.202.

For RRIRTRPPRLPRPRPRPRIQPRP, which “shrunken log2 fold change” value is on record?
The value was 0.214.

For RRIRSRPPRLPRPRPRPLPDPRP, which “shrunken log2 fold change” value is on record?
Its value is 0.266.

How did the “shrunken log2 fold change” value turn out when RRIRHRPPRLPRPRPRPVVSPRP was run?
Its value is -0.137.

RRIRTRPPRLPRPRPRPQFMPRP was tested. Which “shrunken log2 fold change” value did it give?
The value was 0.0325.

RRIRHRPPRLPRPRPRPYAMPRP was tested. Which “shrunken log2 fold change” value did it give?
The value was -0.416.

For RRIRCRPPRLPRPRPRPVVWPRP, which “shrunken log2 fold change” value is on record?
The value was 0.354.

How did the “shrunken log2 fold change” value turn out when RRIRHRPPRLPRPRPRPADDPRP was run?
Its value is 0.083.

How did the “shrunken log2 fold change” value turn out when RRIRARPPRLPRPRPRPKAQPRP was run?
Its value is 1.26.

Which “shrunken log2 fold change” value does the source give for RRIRYRPPRLPRPRPRPPFDPRP here?
Its value is -0.565.

With RRIRLRPPRLPRPRPRPKRNPRP as the sequence, how does the “shrunken log2 fold change” value read?
Its value is 0.225.

RRIRMRPPRLPRPRPRPFMYPRP was tested. Which “shrunken log2 fold change” value did it give?
Its value is -0.219.

Which “shrunken log2 fold change” value does the source give for RRIRWRPPRLPRPRPRPAMHPRP here?
The value was 0.341.

With RRIRCRPPRLPRPRPRPPAIPRP as the sequence, how does the “shrunken log2 fold change” value read?
The value was 0.532.

For RRIRMRPPRLPRPRPRPIVDPRP, which “shrunken log2 fold change” value is on record?
Its value is 0.35.

RRIRSRPPRLPRPRPRPCLNPRP was tested. Which “shrunken log2 fold change” value did it give?
The value was -0.0696.

Which “shrunken log2 fold change” value does the source give for RRIRERPPRLPRPRPRPDFMPRP here?
Its value is 0.0144.

Which “shrunken log2 fold change” value does the source give for RRIRTRPPRLPRPRPRPLERPRP here?
The value was -0.0732.

With RRIRCRPPRLPRPRPRPEVNPRP as the sequence, how does the “shrunken log2 fold change” value read?
Its value is -0.00709.

Which “shrunken log2 fold change” value does the source give for RRIRSRPPRLPRPRPRPGGCPRP here?
Its value is 0.304.
